We go through two molecules from patent US20240050517A1 (University of Washington, published 2024).

Positions of bridges follow the written chain, without caps; N, C: chain ends. Non-standard residues stand in square brackets, D forms with d.

Assay [1] has as its target T1, synthetic PSMα1 peptide (phenol soluble modulin α1) (Staphylococcus aureus, N-terminal formylation (fMet 1)).
T1 peptide: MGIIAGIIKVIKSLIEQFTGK
The assay can be described thus: cell-based or functional assay.

The target in assay [2] is T1, synthetic PSMα1 peptide (phenol soluble …). The assay is described as follows: BLI (BLItz), AP90 immobilized on APS tip, PSMα1 (50 µM) pre-incubated 146 h (transition region between α-sheet and β-sheet). The method, then: (§1) All biolayer interferometry (BLI) experiments were performed on a BLItz™ biosensor system (ForteBio) using aminopropylsilane (APS) sensors. Sensors were hydrated in ddH₂O+22 μM ThT for 10 minutes prior to use. Designed peptides (dissolved in ddH₂O+22 μM ThT) were loaded onto the APS tip, a baseline was established in ddH₂O+22 μM ThT, and then the association of PSMα1 (prepped with DMSO+ddH₂O+22 μM ThT, as in the fibrillization assay at various pre-incubation times) was monitored over a period of three minutes. Dissociation was subsequently measured in ddH₂O+22 μM ThT, and the equilibrium dissociation constant (KD) was calculated using the BLItz™ analysis software (ForteBio).

Assay [3] shares this target. The assay can be described thus: BLI (BLItz), AP90 (180 µM) immobilized on APS tip, PSMα1 (50 µM) in solution, samples near the end of the aggregation lag phase (α-sheet-rich, about 48 h); lower end of the range; PSMα1 samples near the end of the aggregation lag phase. The method, then:
as §1

The Kd is the equilibrium constant for the complex coming apart.

B1: AP90 (Alternating Peptide #90) (designed binder)
peptide: Ac-RGE[dM]N[dL]S[dW]MNEYSGW[dT]M[dN]L[dK]MGR-NH2
SMILES: CSCC[C@H](NC(=O)[C@@H](CCCCN)NC(=O)[C@H](CC(C)C)NC(=O)[C@@H](CC(N)=O)NC(=O)[C@H](CCSC)NC(=O)[C@H](NC(=O)[C@H](Cc1c[nH]c2ccccc12)NC(=O)CNC(=O)[C@H](CO)NC(=O)[C@H](Cc1ccc(O)cc1)NC(=O)[C@H](CCC(=O)O)NC(=O)[C@H](CC(N)=O)NC(=O)[C@H](CCSC)NC(=O)[C@@H](Cc1c[nH]c2ccccc12)NC(=O)[C@H](CO)NC(=O)[C@@H](CC(C)C)NC(=O)[C@H](CC(N)=O)NC(=O)[C@@H](CCSC)NC(=O)[C@H](CCC(=O)O)NC(=O)CNC(=O)[C@H](CCCNC(=N)N)NC(C)=O)[C@H](C)O)C(=O)NCC(=O)N[C@@H](CCCNC(=N)N)C(N)=O
notes: Designed α-sheet single-turn hairpin peptide with alternating L/D residues in the strands; Made by solid phase synthesis; In the BLI assay it was loaded on an aminopropylsilane (APS) sensor tip at 180 µM; also called α1
Turning to B1, in assay [1], the “inhibition of PSMα1 amyloid formation (ThT fluorescence), water + <1% DMSO, 30 µM PSMα1, 1:4 molar ratio PSMα1:AP90” value stood at 81% and the “inhibition of PSMα1 fibril formation (ThT fluorescence), LB medium + <1% DMSO, 1:4 molar ratio PSMα1:AP90” value was determined as 73%. The “drop in binding affinity against α-sheet-rich PSMα1 (end of lag phase)” value in assay [2] is roughly 100 fold. In addition, the dissociation constant Kd in assay [3] is 1000 to 1500 nM.

B2: AP407 (designed binder)
peptide: Ac-RGE[dM]N[dL]C[dW]MNEYSGW[dC]M[dN]L[dK]MGR-NH2
modifications: disulfide 7-16
SMILES: CSCC[C@H](NC(=O)[C@@H](CCCCN)NC(=O)[C@H](CC(C)C)NC(=O)[C@@H](CC(N)=O)NC(=O)[C@H](CCSC)NC(=O)[C@H]1CSSC[C@H](NC(=O)[C@@H](CC(C)C)NC(=O)[C@H](CC(N)=O)NC(=O)[C@@H](CCSC)NC(=O)[C@H](CCC(=O)O)NC(=O)CNC(=O)[C@H](CCCNC(=N)N)NC(C)=O)C(=O)N[C@H](Cc2c[nH]c3ccccc23)C(=O)N[C@@H](CCSC)C(=O)N[C@@H](CC(N)=O)C(=O)N[C@@H](CCC(=O)O)C(=O)N[C@@H](Cc2ccc(O)cc2)C(=O)N[C@@H](CO)C(=O)NCC(=O)N[C@@H](Cc2c[nH]c3ccccc23)C(=O)N1)C(=O)NCC(=O)N[C@@H](CCCNC(=N)N)C(N)=O
B2: the “inhibition of PSMα1 amyloid formation (ThT fluorescence), water + <1% DMSO, 30 µM PSMα1, 1:3 molar ratio PSMα1:AP407” value in assay [1] was 69%.
